Columns and labels:
[1] = molecular target: RSV-F (amino acids 1-529), (Extracellular Domain) protein (His tag), ABIN2006856 (respiratory syncytial virus) (UniProt P03420); assay: ELISA, RSV F coated, anti-human IgG-HRP
[2] = molecular target: RSV-F (amino acids 1-529), (Extracellular Domain) protein (His tag), ABIN2006856 (respiratory syncytial virus) (UniProt P03420); assay: ELISA, RSV F coated, read on SpectroMax
[3] = molecular target: RSV-F (amino acids 1-529), (Extracellular Domain) protein (His tag), ABIN2006856 (respiratory syncytial virus) (UniProt P03420); assay: ELISA, RSV F coated, read on Varioskan plate reader
[4] = molecular target: Influenza A H5N1 virus (IAV H5N1) (target of the Octet assay of Example 18; protein not specified) (Influenza A H5N1 virus); assay: BLI (Octet Red 96), binding affinity to IAV H5N1
[5] = molecular target: SARS-CoV-2 (antigen of the ELISA of Example 17; protein not specified) (SARS-CoV-2); assay: ELISA by the method of Example 15, SARS-CoV-2 antigen
[6] = molecular target: Recombinant RSV F protein (Octet assays of Examples 14 and 16) (respiratory syncytial virus, UniProt P03420 26-529)

SEQ ID NO: 192, b1b2-Fc-ACE2-1 (NRP1 b1b2 at the N-terminus, alpha domain of ACE2 at the C-terminus) (Fc fusion)
EC50 [1]: 53.9 nM

SEQ ID NO: 113, b1-Fc (NRP1, WT, single b1) (Fc fusion)
EC50 [2]: 323 nM
EC50 [3]: 372 nM
Kd [4]: 18.9 nM

SEQ ID NO: 121, b1b1-b1b1-Fc (NRP1, WT, quadruple b1) (Fc fusion)
EC50 [2]: 5.9 nM
EC50 [3]: 5.65 nM
Kd [4]: 0.00782 nM

SEQ ID NO: 191, b1b2-Fc (NRP1, WT) (Fc fusion)
EC50 [2]: 95.7 nM
EC50 [3]: 91 nM

SEQ ID NO: 206, Nrp1(b1)/Nrp2(b2)-Fc (WT) (Fc fusion)
EC50 [1]: 22.7 nM

SEQ ID NO: 203, b1b2-Fc-ACE2 (NRP1, WT, ACE2 alpha domain) (Fc fusion)
EC50 [1]: 69.7 nM

SEQ ID NO: 207, Nrp2(b1)/Nrp1(b2)-Fc (WT) (Fc fusion)
EC50 [1]: 17.1 nM

SEQ ID NO: 154, b1b2-Fc (NRP2, WT, single b1b2) (Fc fusion)
EC50 [1]: 185 nM

SEQ ID NO: 205, b1b2-Fc-ACE2 (NRP1, WT, repeated ACE2 alpha domain) (Fc fusion)
EC50 [1]: 39.2 nM

SEQ ID NO: 122, b1b2-Fc (NRP1, WT, single b1b2) (Fc fusion)
EC50 [5]: 3.09 nM
EC50 [1]: 23.3 nM
Kd [4]: 17.5 nM

SEQ ID NO: 138, b1b2-b1b2-Fc (NRP1, WT, double b1b2) (Fc fusion)
EC50 [5]: 110 nM

B1: SEQ ID NO: 113, b1-Fc (NRP1, WT, single b1) (Fc fusion)
chain: EDFKCMEALGMESGEIHSDQITASSQYSTNWSAERSRLNYPENGWTPGEDSYREWIQVDLGLLRFVTAVGTQGAISKETKKKYYVKTYKIDVSSNGEDWITIKEGNKPVLFQGNTNPTDVVVAVFPKPLITRFVRIKPATWETGISMRFEVYGCGGGGSGGGGSEPKSCDKTHTCPPCPAPELLGGPSVFLFPPKPKDTLMISRTPEVTCVVVDVSHEDPEVKFNWYVDGVEVHNAKTKPREEQYNSTYRVVSVLAVLHQDWLNGKEYKCKVSNKALPAPIEKTISKAKGQPREPQVYTLPPSRDELTKNQVSLTCLVKGFYPSDIAVAWESNGQPENNYKTTPPVLDSDGSFFLYSKLTVDKSRWQQGNVFSCSVMHEALHAHYTQKSLSLSPGK
Kd [6]: < 1 nM

B2: SEQ ID NO: 121, b1b1-b1b1-Fc (NRP1, WT, quadruple b1) (Fc fusion)
chain: EDFKCMEALGMESGEIHSDQITASSQYSTNWSAERSRLNYPENGWTPGEDSYREWIQVDLGLLRFVTAVGTQGAISKETKKKYYVKTYKIDVSSNGEDWITIKEGNKPVLFQGNTNPTDVVVAVFPKPLITRFVRIKPATWETGISMRFEVYGCKITDYPCMEALGMESGEIHSDQITASSQYSTNWSAERSRLNYPENGWTPGEDSYREWIQVDLGLLRFVTAVGTQGAISKETKKKYYVKTYKIDVSSNGEDWITIKEGNKPVLFQGNTNPTDVVVAVFPKPLITRFVRIKPATWETGISMRFEVYGCGGGGSGGGGSCMEALGMESGEIHSDQITASSQYSTNWSAERSRLNYPENGWTPGEDSYREWIQVDLGLLRFVTAVGTQGAISKETKKKYYVKTYKIDVSSNGEDWITIKEGNKPVLFQGNTNPTDVVVAVFPKPLITRFVRIKPATWETGISMRFEVYGCKITDYPCMEALGMESGEIHSDQITASSQYSTNWSAERSRLNYPENGWTPGEDSYREWIQVDLGLLRFVTAVGTQGAISKETKKKYYVKTYKIDVSSNGEDWITIKEGNKPVLFQGNTNPTDVVVAVFPKPLITRFVRIKPATWETGISMRFEVYGCGGGGSGGGGSEPKSCDKTHTCPPCPAPELLGGPSVFLFPPKPKDTLMISRTPEVTCVVVDVSHEDPEVKFNWYVDGVEVHNAKTKPREEQYNSTYRVVSVLAVLHQDWLNGKEYKCKVSNKALPAPIEKTISKAKGQPREPQVYTLPPSRDELTKNQVSLTCLVKGFYPSDIAVAWESNGQPENNYKTTPPVLDSDGSFFLYSKLTVDKSRWQQGNVFSCSVMHEALHAHYTQKSLSLSPGK
Kd [6]: < 1 nM
